Data published in article PMC5702532 (2016).

Molecular target: Bradykinin (Homo sapiens, UniProt P01042)
Test: SPR

Chain of Bradykinin (P01042 whole entry, looked up): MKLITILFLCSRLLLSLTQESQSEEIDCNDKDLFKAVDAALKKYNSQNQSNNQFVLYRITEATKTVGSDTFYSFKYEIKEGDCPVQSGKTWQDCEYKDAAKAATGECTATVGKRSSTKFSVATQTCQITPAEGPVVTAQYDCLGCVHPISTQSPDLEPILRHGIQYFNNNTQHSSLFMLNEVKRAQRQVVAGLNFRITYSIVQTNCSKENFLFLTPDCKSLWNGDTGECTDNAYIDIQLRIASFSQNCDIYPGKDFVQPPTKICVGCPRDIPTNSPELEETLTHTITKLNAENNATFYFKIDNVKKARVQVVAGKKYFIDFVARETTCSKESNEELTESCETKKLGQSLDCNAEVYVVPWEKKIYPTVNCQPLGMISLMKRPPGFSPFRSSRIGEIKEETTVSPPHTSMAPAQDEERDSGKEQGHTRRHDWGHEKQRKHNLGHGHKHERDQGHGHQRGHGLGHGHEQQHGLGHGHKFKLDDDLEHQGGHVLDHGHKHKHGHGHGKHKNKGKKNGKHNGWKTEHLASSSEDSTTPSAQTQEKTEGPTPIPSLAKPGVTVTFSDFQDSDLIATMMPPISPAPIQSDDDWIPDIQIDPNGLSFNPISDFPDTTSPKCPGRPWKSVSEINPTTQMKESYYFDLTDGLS

B1: Aminopeptidase P (APaseP) (protein)
chain: PPKVTSELLRQLRQAMRNSEYVTEPIQAYIIPSGDAHQSEYIAPCDCRRAFVSGFDGSAGTAIITEEHAAMWTDGRYFLQAAKQMDSNWTLMKMGLKDTPTQEDWLVSVLPEGSRVGVDPLIIPTDYWKKMAKVLRSAGHHLIPVKENLVDKIWTDRPERPCKPLLTLGLDYTGISWKDKVADLRLKMAERNVMWFVVTALDEIAWLFNLRGSDVEHNPVFFSYAIIGLETIMLFIDGDRIDAPSVKEHLLLDLGLEAEYRIQVHPYKSILSELKALCADLSPREKVWVSDKASYAVSETIPKDHRCCMPYTPICIAKAVKNSAESEGMRRAHIKDAVALCELFNWLEKEVPKGGVTEISAADKAEEFRRQQADFVDLSFPTISSTGPNGAIIHYAPVPETNRTLSLDEVYLIDSGAQYKDGTTDVTRTMHFGTPTAYEKECFTYVLKGHIAVSAAVFPTGTKGHLLDSFARSALWDSGLDYLHGTGHGVGSFLNVHEGPCGISYKTFSDEPLEAGMIVTDEPGYYEDGAFGIRIENVVLVVPVKTKYNFNNRGSLTFEPLTLVPIQTKMIDVDSLTDKECDWLNNYHLTCRDVIGKELQKQGRQEALEWLIRETQPISKQH
Binder B1 has a Kd of 15.3 µM.
